Measurements taken from publication PMC2719696, “Kinetics and Cellular Site of Glycolipid Loading Control the Outcome of Natural Killer T Cell Activation” (Immunity, 2009).

T1: mCD1d (Mus musculus, UniProt P11609)
T1 sequence (P11609 22-305 limits assumed): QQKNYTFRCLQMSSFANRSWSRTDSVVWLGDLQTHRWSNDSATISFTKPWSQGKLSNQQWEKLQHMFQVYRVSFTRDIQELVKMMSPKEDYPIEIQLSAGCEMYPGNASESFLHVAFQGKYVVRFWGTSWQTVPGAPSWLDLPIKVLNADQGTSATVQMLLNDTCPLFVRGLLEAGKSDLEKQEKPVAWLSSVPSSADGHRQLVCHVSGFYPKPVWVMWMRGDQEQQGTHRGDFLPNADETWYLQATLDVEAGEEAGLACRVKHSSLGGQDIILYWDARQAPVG
T1 sequence (P01887 21-119 partner): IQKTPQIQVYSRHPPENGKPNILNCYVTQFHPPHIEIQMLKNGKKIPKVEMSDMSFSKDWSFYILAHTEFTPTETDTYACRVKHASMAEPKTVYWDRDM


Experiments:
BALB/c splenocytes = experiment: Mouse splenocyte stimulation with glycolipids, IL-4, IL-13 and IFN-γ in supernatants; assay type: cell-based; conditions: 48 hr
Text: (§1) Figure 1 Synthetic Analogs of αGalCer (A) Structures and nomenclature of iNKT cell-activating αGalCer analogs used in this study. The nomenclature used in most cases is based on the identity of the amide-linked acyl group in the ceramide moiety. Acyl carbon chain length and number of unsaturations are indicated by the names of most analogs, with exceptions being OCH (which has a C24 saturated acyl chain) and the compounds with amide-linked prostaglandin B1 (PGB1) or 4-fluorophenyl acetate (4FPA) groups. The phytosphingosine base is 18 carbons in length for all analogs except OCH, which has a nine-carbon base. (B) Hybridoma DN3A4.1-2 (Vβ8.2^+) was stimulated with each of the αGalCer analogs at a range of concentrations with JAWS II cells as APCs, and the amounts of IL-2 production were analyzed. Potencies of glycolipids are shown as 1/EC50 (as defined in Figure S1). […] Concentrations of IFN-γ, IL-4, and IL-12p70 were determined in serum by capture ELISA. “ND” stands for not detected. […]
(§2) For in vitro stimulation, murine iNKT hybridomas at 5 × 10^4 cells/well in 96-well plates were stimulated with an equal number of either JAWS II cells or transfected A20 cells in complete medium with glycolipids for 12 hr at 37°C, and levels of murine IL-2 secretion were determined. […] Subsequently the levels of IL-4, IL-13, and IFN-γ in culture supernatants were quantified by capture ELISA. […]

iNKT cells = experiment: In vivo activation of iNKT cells by i.p. glycolipid injection; serum cytokines by capture ELISA; conditions: C57BL/6 mice, i.p. 4 nmoles
Text: as §1, §2

mCD1d = molecular target: T1, mCD1d; experiment: In vitro CD1d loading assay with immobilized mCD1d, saposins or Triton X-100, DN32.D3 hybridoma IL-2 readout; assay type: biochemical; conditions: saposin 10 μg/ml, glycolipid αGalCer-C26:0
Description: Figure 5 Lack of Detergent-like Cofactor Dependence of Th2 Cell-Type Cytokine-Biasing αGalCer Analogs (A) Glycolipids were incubated for 24 hr at 37°C with murine CD1d proteins in the absence (top row) or presence (bottom row) of 0.05% Triton X-100. The resulting complexes were assembled as tetramers and used for staining mouse iNKT hybridoma DN3A4.1-2. The dashed line histograms show background staining with unloaded tetramers, and the bold histograms show staining with glycolipid loaded tetramers. (B) The same analysis as in (A) except with human CD1d tetramers, which were also used for DN3A4.1-2 staining. (C) Glycolipids at various concentrations were incubated with immobilized mCD1d protein for 2 hr in pH 7.0 or pH 5.0 buffers with no additives (medium) or in the same buffers containing the indicated purified recombinant saposins (10 μg/ml) or Triton X-100 (0.05%). After washing, DN32.D3 iNKT hybridoma cells were added and supernatant concentrations of IL-2 were determined after an additional 14 hr of incubation. All results shown (A, B, and C) were representative of at least two independent experiments.
To extend these observations to a more physiological model, we tested the effects of purified recombinant saposin A, B, C, and D proteins on loading of αGalCer analogs.
Recombinant murine CD1d proteins at 4 μg/ml in 50 μl PBS were coated on the surfaces of microtiter plate wells for 2 hr at 37°C and then washed with PBS for removal of unbound proteins. Subsequently, various concentrations of glycolipids in 0.1 M sodium phosphate buffer (pH 7.0) or 0.1 M sodium citrate buffer (pH 5.0) containing 150 mM NaCl were incubated with or without 0.05% Triton X-100 or recombinant purified human saposins A, B, C, or D at 10 μg/ml for another 2 hr at 37°C. Saposins were produced and purified as described ([Yuan et al., 2007]). After extensive washing with PBS and media, 5 × 10^4 murine iNKT hybridoma DN32.D3 cells were added in 200 μl of complete medium and incubated at 37°C for 14 hr. Supernatants were analyzed for murine IL-2 by capture ELISA.

Molecule	activity of purified saposin in enabling loading of αGalCer-C26:0 onto mCD1d (mCD1d)	Th2 cell-type cytokine bias (ratios of IL-13 or IL-4 to IFN-γ) (BALB/c splenocytes)	activity in vivo (serum cytokines) (iNKT cells)
CCCCCCCCCCCCCCC(O)C(O)C(COC1OC(CO)C(O)C(O)C1O)NC(=O)Cc1ccc(F)cc1 (stereo not drawn) [αGalCer-4FPA]	–	pronounced Th2 cell-type biasing effect in vitro	minimal activity in vivo
saposin D: recombinant purified human saposin D (protein, UniProt P07602 405-486, looked up, Saposin-D) Saposin-D: DGGFCEVCKKLVGYLDRNLEKNSTKQEILAALEKGCSFLPDPYQKQCDQFVAEYEPVLIEILVEVMDPSFVCLKIGACPSAH	minimal or no activity	–	–
saposin C: recombinant purified human saposin C (protein, UniProt P07602 311-390, looked up, Saposin-C) Saposin-C: SDVYCEVCEFLVKEVTKLIDNNKTEKEILDAFDKMCSKLPKSLSEECQEVVDTYGSSILSILLEEVSPELVCSMLHLCSG	minimal or no activity	–	–

Continued, in another order:

activity of purified saposin in enabling loading of αGalCer-C26:0 onto mCD1d (mCD1d)	Molecule	Th2 cell-type cytokine bias (ratios of IL-13 or IL-4 to IFN-γ) (BALB/c splenocytes)	activity in vivo (serum cytokines) (iNKT cells)
strongly active	Saposin B: recombinant purified human saposin B, lipid transfer protein (protein, UniProt P07602 195-273, looked up, Saposin-B, recombinant purified human saposin B, lipid transfer protein) Saposin-B: GDVCQDCIQMVTDIQTAVRTNSTFVQALVEHVKEECDRLGPGMADICKNYISQYSEIAIQMMMHMQPKEICALVGFCDE	–	–
minimal or no activity	saposin A: recombinant purified human saposin A (protein, UniProt P07602 60-142, looked up, Saposin-A) Saposin-A: SLPCDICKDVVTAAGDMLKDNATEEEILVYLEKTCDWLPKPNMSASCKEIVDSYLPVILDIIKGEMSRPGEVCSALNLCESLQ	–	–
